The results in this text go back to IntAct's records for PubMed 31515488.

B1: Golgin-45 (Homo sapiens), Q9H2G9 (parent)
chain: MTTKNLETKVTVTSSPIRGAGDGMETEEPPKSVEVTSGVQSRKHHSLQSPWKKAVPSESPGVLQLGKMLTEKAMEVKAVRILVPKAAITHDIPNKNTKVKSLGHHKGEFLGQSEGVIEPNKELSEVKNVLEKLKNSERRLLQDKEGLSNQLRVQTEVNRELKKLLVASVGDDLQYHFERLAREKNQLILENEALGRNTAQLSEQLERMSIQCDVWRSKFLASRVMADELTNSRAALQRQNRDAHGAIQDLLSEREQFRQEMIATQKLLEELLVSLQWGREQTYSPSVQPHSTAELALTNHKLAKAVNSHLLGNVGINNQKKIPSTVEFCSTPAEKMAETVLRILDPVTCKESSPDNPFFESSPTTLLATKKNIGRFHPYTRYENITFNCCNHCRGELIAL
partner: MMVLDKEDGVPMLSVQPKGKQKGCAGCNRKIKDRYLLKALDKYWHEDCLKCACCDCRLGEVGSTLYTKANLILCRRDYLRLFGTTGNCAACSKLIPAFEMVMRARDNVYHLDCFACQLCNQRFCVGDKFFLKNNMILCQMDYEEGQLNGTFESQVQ
B2: Nuclear pore glycoprotein p62 (Homo sapiens), P37198 (parent)
chain: MSGFNFGGTGAPTGGFTFGTAKTATTTPATGFSFSTSGTGGFNFGAPFQPATSTPSTGLFSLATQTPATQTTGFTFGTATLASGGTGFSLGIGASKLNLSNTAATPAMANPSGFGLGSSNLTNAISSTVTSSQGTAPTGFVFGPSTTSVAPATTSGGFSFTGGSTAQPSGFNIGSAGNSAQPTAPATLPFTPATPAATTAGATQPAAPTPTATITSTGPSLFASIATAPTSSATTGLSLCTPVTTAGAPTAGTQGFSLKAPGAASGTSTTTSTAATATATTTSSSSTTGFALNLKPLAPAGIPSNTAAAVTAPPGPGAAAGAAASSAMTYAQLESLINKWSLELEDQERHFLQQATQVNAWDRTLIENGEKITSLHREVEKVKLDQKRLDQELDFILSQQKELEDLLSPLEELVKEQSGTIYLQHADEEREKTYKLAENIDAQLKRMAQDLKDIIEHLNTSGAPADTSDPLQQICKILNAHMDSLQWIDQNSALLQRKVEEVTKVCEGRRKEQERSFRITFD
partner: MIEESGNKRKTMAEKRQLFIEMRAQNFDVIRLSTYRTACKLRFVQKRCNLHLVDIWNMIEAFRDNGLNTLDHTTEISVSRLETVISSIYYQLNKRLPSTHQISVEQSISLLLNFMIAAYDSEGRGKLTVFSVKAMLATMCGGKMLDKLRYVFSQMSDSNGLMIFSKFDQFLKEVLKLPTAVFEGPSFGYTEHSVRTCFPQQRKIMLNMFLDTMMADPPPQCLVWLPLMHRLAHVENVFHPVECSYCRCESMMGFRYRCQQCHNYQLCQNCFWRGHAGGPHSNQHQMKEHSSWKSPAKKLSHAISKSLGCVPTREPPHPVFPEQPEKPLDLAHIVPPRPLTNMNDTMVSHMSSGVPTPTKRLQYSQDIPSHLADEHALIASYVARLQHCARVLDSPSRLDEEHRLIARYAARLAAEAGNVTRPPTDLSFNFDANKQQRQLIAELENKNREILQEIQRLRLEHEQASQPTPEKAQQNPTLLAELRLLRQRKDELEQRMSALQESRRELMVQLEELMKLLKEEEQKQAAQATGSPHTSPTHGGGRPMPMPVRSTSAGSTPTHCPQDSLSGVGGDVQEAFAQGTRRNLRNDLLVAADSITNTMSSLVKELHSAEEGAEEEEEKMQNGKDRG
B3: Notch homolog 2 N-terminal-like protein A (Homo sapiens), Q7Z3S9 (parent)
chain: MCVTYHNGTGYCKCPEGFLGEYCQHRDPCEKNRCQNGGTCVAQAMLGKATCRCASGFTGEDCQYSTSHPCFVSRPCLNGGTCHMLSRDTYECTCQVGFTGKECQWTDACLSHPCANGSTCTTVANQFSCKCLTGFTGQKCETDVNECDIPGHCQHGGTCLNLPGSYQCQCLQGFTGQYCDSLYVPCAPSPCVNGGTCRQTGDFTFECNCLPETVRRGTELWERDREVWNGKEHDEN
partner: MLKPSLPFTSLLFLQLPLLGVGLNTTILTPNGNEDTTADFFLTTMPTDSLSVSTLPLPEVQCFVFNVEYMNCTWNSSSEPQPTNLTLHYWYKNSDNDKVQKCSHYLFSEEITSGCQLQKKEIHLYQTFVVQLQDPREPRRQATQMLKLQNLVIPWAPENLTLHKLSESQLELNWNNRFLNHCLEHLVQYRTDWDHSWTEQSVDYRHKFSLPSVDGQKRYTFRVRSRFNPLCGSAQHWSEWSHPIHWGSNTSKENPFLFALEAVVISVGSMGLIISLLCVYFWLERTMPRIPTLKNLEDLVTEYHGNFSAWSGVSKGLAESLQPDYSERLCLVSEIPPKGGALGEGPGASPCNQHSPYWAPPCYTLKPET
B4: Calcium-binding and coiled-coil domain-containing protein 2 (Homo sapiens), Q13137 (parent)
chain: MEETIKDPPTSAVLLDHCHFSQVIFNSVEKFYIPGGDVTCHYTFTQHFIPRRKDWIGIFRVGWKTTREYYTFMWVTLPIDLNNKSAKQQEVQFKAYYLPKDDEYYQFCYVDEDGVVRGASIPFQFRPENEEDILVVTTQGEVEEIEQHNKELCKENQELKDSCISLQKQNSDMQAELQKKQEELETLQSINKKLELKVKEQKDYWETELLQLKEQNQKMSSENEKMGIRVDQLQAQLSTQEKEMEKLVQGDQDKTEQLEQLKKENDHLFLSLTEQRKDQKKLEQTVEQMKQNETTAMKKQQELMDENFDLSKRLSENEIICNALQRQKERLEGENDLLKRENSRLLSYMGLDFNSLPYQVPTSDEGGARQNPGLAYGNPYSGIQESSSPSPLSIKKCPICKADDICDHTLEQQQMQPLCFNCPICDKIFPATEKQIFEDHVFCHSL
partner: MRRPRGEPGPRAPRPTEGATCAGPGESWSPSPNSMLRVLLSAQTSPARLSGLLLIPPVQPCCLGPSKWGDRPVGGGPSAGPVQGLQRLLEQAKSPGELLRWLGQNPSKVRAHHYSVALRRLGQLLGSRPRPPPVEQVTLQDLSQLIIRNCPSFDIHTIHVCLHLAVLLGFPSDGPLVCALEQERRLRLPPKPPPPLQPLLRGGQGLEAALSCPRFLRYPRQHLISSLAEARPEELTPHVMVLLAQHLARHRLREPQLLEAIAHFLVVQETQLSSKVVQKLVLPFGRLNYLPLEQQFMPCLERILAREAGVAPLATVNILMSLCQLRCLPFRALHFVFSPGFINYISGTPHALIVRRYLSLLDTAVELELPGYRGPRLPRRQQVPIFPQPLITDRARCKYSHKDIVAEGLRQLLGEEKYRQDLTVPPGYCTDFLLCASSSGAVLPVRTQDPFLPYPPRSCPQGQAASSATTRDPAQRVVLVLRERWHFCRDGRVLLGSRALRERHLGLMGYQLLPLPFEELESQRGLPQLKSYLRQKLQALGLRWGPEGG

Variants of B1 are the subject of one assay. The conditions noted are these: with rbtn1_human LMO1, P25800.
On to Q40R, for which the “effect of a mutation on the interaction” value is recorded as “with no effect”.
On to H45R, for which the “effect of a mutation on the interaction” value was “with no effect”.

The variants in the next assay derive from B2. The settings on record: with dtnb_human DTNB.
As to A279T, the “effect of a mutation on the interaction” value was “with no effect”.

In the next assay the parent is B3. The settings on record: with il2rg_human IL2RG.
For the variant A115T, the “effect of a mutation on the interaction” value is reported as “with no effect”.
In the case of R74Q, the “effect of a mutation on the interaction” value is “with no effect”.

In the next assay the parent is B4. The conditions noted are these: with fastk_human FASTK.
Consider V248A, for which the “effect of a mutation on the interaction” value is reported as “with no effect”.
